Experimental data taken from US20130012436A1 (Bristol-Myers Squibb, published 2013).

T1: human IL-23 (human, UniProt Q9NPF7 20-189; P29460 23-328)
T1 sequence (looked up) 1: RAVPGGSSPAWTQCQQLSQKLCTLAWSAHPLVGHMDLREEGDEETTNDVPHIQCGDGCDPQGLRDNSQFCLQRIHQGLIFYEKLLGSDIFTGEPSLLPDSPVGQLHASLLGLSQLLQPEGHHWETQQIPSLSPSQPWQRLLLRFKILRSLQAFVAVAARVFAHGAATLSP
T1 sequence (looked up) 2: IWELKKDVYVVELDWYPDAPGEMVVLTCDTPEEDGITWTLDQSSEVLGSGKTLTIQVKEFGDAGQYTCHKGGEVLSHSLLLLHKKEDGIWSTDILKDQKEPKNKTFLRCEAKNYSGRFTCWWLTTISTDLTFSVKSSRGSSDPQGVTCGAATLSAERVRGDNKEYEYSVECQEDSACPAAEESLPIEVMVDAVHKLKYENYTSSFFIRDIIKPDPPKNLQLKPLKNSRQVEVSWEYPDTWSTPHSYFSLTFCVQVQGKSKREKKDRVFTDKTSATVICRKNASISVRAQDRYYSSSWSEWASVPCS


What was measured:
human IL-23 [1] = molecular target: T1, human IL-23; experiment: cell-based or functional assay
human IL-23 [2] = molecular target: T1, human IL-23; experiment: SPR, Adnectin captured by anti-His mAb, IL-23 injected
Procedure: All surface plasmon experiments were conducted in HBS-EP (10 mM Hepes 150 mM NaCl 3 mM EDTA 0.05% Surfactant P20) at 25° C. IL-23 was injected over anti-His mAb captured Adnectins for 2 minutes followed by a 10 minute dissociation phase. Evaluation of the binding specificity was completed using Biacore T100 evaluation software. Additional detailed methods are described in Example 4.

| Binder | Kit 225 pSTAT3 IC50 (nM) (human IL-23 [1]) | kon (human IL-23 [2]) | Kd (human IL-23 [2]) | koff (human IL-23 [2]) |
| --- | --- | --- | --- | --- |
| 1434A08 (designed binder) MGVSDVPRDLEVVAATPTSLLISWGHYPMHVRYYRITYGETGGNSPVQEFTVPHRTHTATISGLKPGVDYTITVYAVTYYNEADYSQIPISINYRTEIDKPSQHHHHHH | 4.9 nM | – | – | – |
| 1572H08 (designed binder, captured by anti-His mAb) MGVSDVPRDLEVVAATPTSLLISWGHYPLHVRYYRITYGETGGNSPVQEFTVPSRKYTATISGLKPGVDYTITVYAVTYYNEADYSQIPISINYRTEIDKPSQHHHHHH | 2.8 nM | 57300 M⁻¹ s⁻¹ | – | – |
| 1438D01 (designed binder) MGVSDVPRDLEVVAATPTSLLISWGHYPMHVRYYRITYGETGGNSPVQEFTVPNRAHTATISGLKPGVDYTITVYAVTYYNEADYSQIPISINYRTEIDKPSQHHHHHH | 11.4 nM | – | – | – |
| 1438A09 (designed binder) MGVSDVPRDLEVVAATPTSLLISWGHYPMHVRYYRITYGETGGNSPVQEFTVPRSRYTATISGLKPGVDYTITVYAVTYYNEADYSQIPISINYRTEIDKPSQHHHHHH | 10.8 nM | – | – | – |
| 1438B02 (designed binder) MGVSDVPRDLEVVAATPTSLLISWGHYPMHVRYYRITYGETGGNSPVQEFTVPRKTYTATISGLKPGVDYTITVYAVTYYNEADYSQIPISINYRTEIDKPSQHHHHHH | 8.6 nM | – | – | – |
| 1438E05 (designed binder) MGVSDVPRDLEVVAATPTSLLISWGHYPMHVRYYRITYGETGGNSPVQEFTVPSNVHTATISGLKPGVDYTITVYAVTYYNEADYSQIPISINYRTEIDKPSQHHHHHH | 39.6 nM | – | – | – |
| 1487D09 (designed binder, captured by anti-His mAb) MGVSDVPRDLEVVAATPTSLLISWGHYPMHIRYYRITYGETGGNSPVQEFTVPRSRHTATISGLKPGVDYTITVYAVTYYNEADYSQIPISINYRTEIDKPSQHHHHHH | 2 nM | 150000 M⁻¹ s⁻¹ | 1.7 nM | 0.00025 s⁻¹ |
| 1487H04 (designed binder, captured by anti-His mAb) MGVSDVPRDLEVVAATPTSLLISWGHYPMHVRYYRITYGETGGNSPVQEFTVPARQYTATISGLKPGVDYTITVYAVTYYQEYEYRYIPISINYRTEIDKPSQHHHHHH | 2 nM | 59600 M⁻¹ s⁻¹ | – | – |
| 1486D04 (designed binder, captured by anti-His mAb) MGVSDVPRDLEVVAATPTSLLISWGHYPLHIRYYRITYGETGGNSPVQEFTVPRSTHTATISGLKPGVDYTITVYAVTYYNEADYSQIPISINYRTEIDKPSQHHHHHH | 2 nM | 151000 M⁻¹ s⁻¹ | 2.3 nM | 0.000352 s⁻¹ |
| 1491A05 (designed binder, captured by anti-His mAb) MGVSDVPRDLEVVAATPTSLLISWGHYPLHVRYYRITYGETGGNSPVQEFTVPSQVYTATISGLKPGVDYTITVYAVTYYAQENYKEIPISINYRTEIDKPSQHHHHHH | 0.3 nM | 198000 M⁻¹ s⁻¹ | 2.1 nM | 0.000408 s⁻¹ |
| 1487C03 (designed binder, captured by anti-His mAb) MGVSDVPRDLEVVAATPTSLLISWGHYPLHIRYYRITYGETGGNSPVQEFTVPKQVYTATISGLKPGVDYTITVYAVTYYNEADYSQIPISINYRTEIDKPSQHHHHHH | 3.7 nM | 161000 M⁻¹ s⁻¹ | 2.4 nM | 0.000382 s⁻¹ |
| 1437G04 (designed binder, captured by anti-His mAb) MGVSDVPRDLEVVAATPTSLLISWGHYPLHVRYYRITYGETGGNSPVQEFTVPYYHYTATISGLKPGVDYTITVYAVTYYNEADYSQIPISINYRTEIDKPSQHHHHHH | 3.3 nM | 134000 M⁻¹ s⁻¹ | 3.3 nM | 0.000446 s⁻¹ |
| 1490C07 (designed binder, captured by anti-His mAb) MGVSDVPRDLEVVAATPTSLLISWGHYPLHVRYYRITYGETGGNSPVQEFTVPSNRYTATISGLKPGVDYTITVYAVTYYNEADYSQIPISINYRTEIDKPSQHHHHHH | 5.6 nM | 95600 M⁻¹ s⁻¹ | 4.5 nM | 0.000426 s⁻¹ |
| 1490 E02 (designed binder, captured by anti-His mAb) MGVSDVPRDLEVVAATPTSLLISWGHYPMHVRYYRITYGETGGNSPVQEFTVPRTQYTATISGLKPGVDYTITVYAVTYYNEADYSQIPISINYRTEIDKPSQHHHHHH | – | 97300 M⁻¹ s⁻¹ | 4.8 nM | 0.000465 s⁻¹ |
| 1490G02 (designed binder, captured by anti-His mAb) MGVSDVPRDLEVVAATPTSLLISWGHYPMHVRYYRITYGETGGNSPVQEFTVPPRYHTATISGLKPGVDYTITVYAVTYYMEEKYAVIPISINYRTEIDKPSQHHHHHH | 0.4 nM | 197000 M⁻¹ s⁻¹ | 1.7 nM | 0.000332 s⁻¹ |
| 1490H06 (designed binder, captured by anti-His mAb) MGVSDVPRDLEVVAATPTSLLISWGHYPLHIRYYRITYGETGGNSPVQEFTVPRQKYTATISGLKPGVDYTITVYAVTYYNEADYSQIPISINYRTEIDKPSQHHHHHH | 2.3 nM | 93500 M⁻¹ s⁻¹ | – | – |
| 1486B05 (designed binder, captured by anti-His mAb) MGVSDVPRDLEVVAATPTSLLISWGHYPMHVRYYRITYGETGGNSPVQEFTVPSRIYTATISGLKPGVDYTITVYAVTYYNEADYSQIPISINYRTEIDKPSQHHHHHH | 4 nM | 134000 M⁻¹ s⁻¹ | 2.8 nM | 0.000381 s⁻¹ |
| 1487G03 (designed binder, captured by anti-His mAb) MGVSDVPRDLEVVAATPTSLLISWGHYPLHVRYYRITYGETGGNSPVQEFTVPAHRYTATISGLKPGVDYTITVYAVTYYNEADYSQIPISINYRTEIDKPSQHHHHHH | 3 nM | 103000 M⁻¹ s⁻¹ | 3.1 nM | 0.000316 s⁻¹ |
| 1550A07 (designed binder, captured by anti-His mAb) MGVSDVPRDLEVVAATPTSLLISWGHYPMHVRYYRITYGETGGNSPVQEFTVPVPRYTATISGLKPGVDYTITVYAVTYYAQENYKEIPISINYRTEIDKPSQHHHHHH | 1 nM | 117000 M⁻¹ s⁻¹ | 1.1 nM | 0.000133 s⁻¹ |
| 1550C05 (designed binder, captured by anti-His mAb) MGVSDVPRDLEVVAATPTSLLISWGHYPMHVRYYRITYGETGGNSPVQEFTVPPRRYTATISGLKPGVDYTITVYAVTYYNEADYSQIPISINYRTEIDKPSQHHHHHH | 16.8 nM | 65900 M⁻¹ s⁻¹ | 2.1 nM | 0.000135 s⁻¹ |
| 1486C04 (designed binder, captured by anti-His mAb) MGVSDVPRDLEVVAATPTSLLISWGHYPMHVRYYRITYGETGGNSPVQEFTVPPHRYTATISGLKPGVDYTITVYAVTYYNEADYSQIPISINYRTEIDKPSQHHHHHH | 31.9 nM | 112000 M⁻¹ s⁻¹ | 3.4 nM | 0.000379 s⁻¹ |
| 1437A09 (designed binder, captured by anti-His mAb) MGVSDVPRDLEVVAATPTSLLISWGHYPMHVRYYRITYGETGGNSPVQEFTVPSKQHTATISGLKPGVDYTITVYAVTYYNEADYSQIPISINYRTEIDKPSQHHHHHH | 20.2 nM | 80600 M⁻¹ s⁻¹ | 5.7 nM | 0.00046 s⁻¹ |
| 1550 E03 (designed binder, captured by anti-His mAb) MGVSDVPRDLEVVAATPTSLLISWGHYPLHIRYYRITYGETGGNSPVQEFTVPRMRHTATISGLKPGVDYTITVYAVTYYSEELYKYIPISINYRTEIDKPSQHHHHHH | 5.3 nM | 99500 M⁻¹ s⁻¹ | 1.9 nM | 0.000186 s⁻¹ |
| 1490A07 (designed binder, captured by anti-His mAb) MGVSDVPRDLEVVAATPTSLLISWGHYPLHIRYYRITYGETGGNSPVQEFTVPHAKYTATISGLKPGVDYTITVYAVTYYAQENYKEIPISINYRTEIDKPSQHHHHHH | 0.6 nM | 163000 M⁻¹ s⁻¹ | – | – |
| 1490H08 (designed binder, captured by anti-His mAb) MGVSDVPRDLEVVAATPTSLLISWGHYPLHIRYYRITYGETGGNSPVQEFTVPNTSHTATISGLKPGVDYTITVYAVTYYNEADYSQIPISINYRTEIDKPSQHHHHHH | – | 167000 M⁻¹ s⁻¹ | 3.5 nM | 0.000587 s⁻¹ |
| 1486D05 (designed binder, captured by anti-His mAb) MGVSDVPRDLEVVAATPTSLLISWGHYPLHVRYYRITYGETGGNSPVQEFTVPHQRYTATISGLKPGVDYTITVYAVTYYNEADYSQIPISINYRTEIDKPSQHHHHHH | 4 nM | 120000 M⁻¹ s⁻¹ | 2.9 nM | 0.000344 s⁻¹ |
| 1486G03 (designed binder, captured by anti-His mAb) MGVSDVPRDLEVVAATPTSLLISWGHYPMHVRYYRITYGETGGNSPVQEFTVPSRYYTATISGLKPGVDYTITVYAVTYYNEADYSQIPISINYRTEIDKPSQHHHHHH | 3 nM | 86200 M⁻¹ s⁻¹ | 4.9 nM | 0.000425 s⁻¹ |
